In patent US20210330762A1:

Key:
Experiment in all cases: cell-based or functional assay
[1] = biological target: µPlm mutant F587M (human) (UniProt P00747)
[2] = biological target: µPlm mutant F587Q (human) (UniProt P00747)
[3] = biological target: µPlm mutant F587A (human) (UniProt P00747)
[4] = biological target: µPlm mutant F587I (human) (UniProt P00747)
[5] = biological target: µPlm mutant F587D (human) (UniProt P00747)
[6] = biological target: wild-type microplasmin (WT µPlm), refolded from E. coli µPlg and activated with urokinase (human) (UniProt P00747)
[7] = biological target: µPlm mutant F587V (human) (UniProt P00747)
[8] = biological target: µPlm mutant F587R (human) (UniProt P00747)
[9] = biological target: µPlm mutant F587N (human) (UniProt P00747)

IC50 (nM) of α2-AP inhibition of µPlm amidolytic activity (S-2403) [1]: 77.6 nM
IC50 Fold Increase [1]: 2 fold
IC50 (nM) of α2-AP inhibition of µPlm amidolytic activity (S-2403) [2]: 63.2 nM
IC50 Fold Increase [2]: 1.7 fold
IC50 (nM) of α2-AP inhibition of µPlm amidolytic activity (S-2403) [3]: 150 nM
IC50 Fold Increase [3]: 4 fold
activity remaining at 2 times concentration of α2-AP (% activity remaining) [3]: 50
IC50 (nM) of α2-AP inhibition of µPlm amidolytic activity (S-2403) [4]: 46.4 nM
IC50 Fold Increase [4]: 1.2 fold
IC50 (nM) of α2-AP inhibition of µPlm amidolytic activity (S-2403) [5]: 106 nM
IC50 Fold Increase [5]: 2.8 fold
IC50 (nM) of α2-AP inhibition of µPlm amidolytic activity (S-2403) [6]: 37.9 nM
IC50 Fold Increase [6]: 1 fold
IC50 (nM) of α2-AP inhibition of µPlm amidolytic activity (S-2403) [7]: 65.2 nM
IC50 Fold Increase [7]: 1.7 fold
IC50 (nM) of α2-AP inhibition of µPlm amidolytic activity (S-2403) [8]: 164 nM
IC50 Fold Increase [8]: 4.3 fold
IC50 (nM) of α2-AP inhibition of µPlm amidolytic activity (S-2403) [9]: 105 nM
IC50 Fold Increase [9]: 2.8 fold
B1: α2-antiplasmin (α2-AP), purified from human serum (protein)
chain: NQEQVSPLTLLKLGNQEPGGQTALKSPPGVCSRDPTPEQTHRLARAMMAFTADLFSLVAQTSTCPNLILSPLSVALALSHLALGAQNHTLQRLQQVLHAGSGPCLPHLLSRLCQDLGPGAFRLAARMYLQKGFPIKEDFLEQSEQLFGAKPVSLTGKQEDDLANINQWVKEATEGKIQEFLSGLPEDTVLLLLNAIHFQGFWRNKFDPSLTQRDSFHLDEQFTVPVEMMQARTYPLRWFLLEQPEIQVAHFPFKNNMSFVVLVPTHFEWNVSQVLANLSWDTLHPPLVWERPTKVRLPKLYLKHQMDLVATLSQLGLQELFQAPDLRGISEQSLVVSGVQHQSTLELSEVGVEAAAATSIAMSRMSLSSFSVNRPFLFFIFEDTTGLPLFVGSVRNPNPSAPRELKEQQDSPGNKDFLQSLKGFPRGDKLFGPDLKLVPPMEEDYPQFGSPK
